# In article PMC6648896 (Nucleic Acids Research, 2019):
# B1: fluorescein-labeled E. coli σ^E (natural protein)
# chain: MSEQLTDQVLVERVQKGDQKAFNLLVVRYQHKVASLVSRYVPSGDVPDVVQEAFIKAYRALDSFRGDSAFYTWLYRIAVNTAKNYLVAQGRRPPSSDVDAIEAENFESGGALKEISNPENLMLSEELRQIVFRTIESLPEDLRMAITLRELDGLSYEEIAAIMDCPVGTVRSRIFRAREAIDNKVQPLIRR
# modifications: fluorescein at residue C165
# Biological target: E. coli RNAP core enzyme (E. coli, UniProt P0A7Z4;P0A8V2;P0A8T7;P0A800)
# Test: fluorescence polarisation
# Chain of E. coli RNAP core enzyme (P0A7Z4 whole entry, chain 1 of 4): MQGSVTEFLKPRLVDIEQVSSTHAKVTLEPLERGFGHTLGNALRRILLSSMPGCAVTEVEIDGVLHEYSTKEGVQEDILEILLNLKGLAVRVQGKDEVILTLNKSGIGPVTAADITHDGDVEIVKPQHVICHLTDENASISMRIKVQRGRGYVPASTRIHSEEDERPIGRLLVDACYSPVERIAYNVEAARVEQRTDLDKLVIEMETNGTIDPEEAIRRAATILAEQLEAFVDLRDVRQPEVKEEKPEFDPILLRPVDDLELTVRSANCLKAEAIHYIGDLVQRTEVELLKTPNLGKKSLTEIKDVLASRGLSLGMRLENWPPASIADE
# Chain of E. coli RNAP core enzyme (P0A8V2 whole entry, chain 2 of 4): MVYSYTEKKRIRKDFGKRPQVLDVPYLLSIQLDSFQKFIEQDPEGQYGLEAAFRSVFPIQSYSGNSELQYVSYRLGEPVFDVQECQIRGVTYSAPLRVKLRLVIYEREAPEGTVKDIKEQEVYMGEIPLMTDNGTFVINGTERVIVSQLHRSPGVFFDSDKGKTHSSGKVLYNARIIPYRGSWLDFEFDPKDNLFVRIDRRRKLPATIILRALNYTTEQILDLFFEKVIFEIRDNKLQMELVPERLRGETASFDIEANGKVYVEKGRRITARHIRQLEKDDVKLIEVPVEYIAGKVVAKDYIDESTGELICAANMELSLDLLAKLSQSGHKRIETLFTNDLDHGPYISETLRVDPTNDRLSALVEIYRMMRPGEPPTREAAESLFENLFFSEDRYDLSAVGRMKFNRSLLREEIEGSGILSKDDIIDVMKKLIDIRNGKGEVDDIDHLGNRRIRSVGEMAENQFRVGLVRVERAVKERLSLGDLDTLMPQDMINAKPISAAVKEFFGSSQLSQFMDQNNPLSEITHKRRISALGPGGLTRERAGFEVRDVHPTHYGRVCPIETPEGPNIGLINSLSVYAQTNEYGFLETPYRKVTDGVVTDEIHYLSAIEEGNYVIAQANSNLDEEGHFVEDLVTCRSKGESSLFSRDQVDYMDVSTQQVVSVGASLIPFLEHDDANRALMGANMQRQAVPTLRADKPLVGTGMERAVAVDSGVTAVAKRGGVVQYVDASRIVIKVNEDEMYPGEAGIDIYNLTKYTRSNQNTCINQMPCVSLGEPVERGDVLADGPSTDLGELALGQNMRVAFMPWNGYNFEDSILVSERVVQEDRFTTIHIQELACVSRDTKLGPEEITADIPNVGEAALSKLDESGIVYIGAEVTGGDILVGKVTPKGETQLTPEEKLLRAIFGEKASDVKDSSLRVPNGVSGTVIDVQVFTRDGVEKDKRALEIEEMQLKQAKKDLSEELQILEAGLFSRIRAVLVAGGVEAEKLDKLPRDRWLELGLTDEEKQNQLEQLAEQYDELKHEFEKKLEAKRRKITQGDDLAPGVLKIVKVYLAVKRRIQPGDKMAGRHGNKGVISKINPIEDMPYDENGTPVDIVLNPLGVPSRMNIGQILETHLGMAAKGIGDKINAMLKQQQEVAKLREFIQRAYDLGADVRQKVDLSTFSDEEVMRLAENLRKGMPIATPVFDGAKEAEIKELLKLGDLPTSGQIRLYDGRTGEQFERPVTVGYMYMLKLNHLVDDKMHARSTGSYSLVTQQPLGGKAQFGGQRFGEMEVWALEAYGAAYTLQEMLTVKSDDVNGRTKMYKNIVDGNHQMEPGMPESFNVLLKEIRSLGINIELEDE
# Chain of E. coli RNAP core enzyme (P0A8T7 whole entry, chain 3 of 4): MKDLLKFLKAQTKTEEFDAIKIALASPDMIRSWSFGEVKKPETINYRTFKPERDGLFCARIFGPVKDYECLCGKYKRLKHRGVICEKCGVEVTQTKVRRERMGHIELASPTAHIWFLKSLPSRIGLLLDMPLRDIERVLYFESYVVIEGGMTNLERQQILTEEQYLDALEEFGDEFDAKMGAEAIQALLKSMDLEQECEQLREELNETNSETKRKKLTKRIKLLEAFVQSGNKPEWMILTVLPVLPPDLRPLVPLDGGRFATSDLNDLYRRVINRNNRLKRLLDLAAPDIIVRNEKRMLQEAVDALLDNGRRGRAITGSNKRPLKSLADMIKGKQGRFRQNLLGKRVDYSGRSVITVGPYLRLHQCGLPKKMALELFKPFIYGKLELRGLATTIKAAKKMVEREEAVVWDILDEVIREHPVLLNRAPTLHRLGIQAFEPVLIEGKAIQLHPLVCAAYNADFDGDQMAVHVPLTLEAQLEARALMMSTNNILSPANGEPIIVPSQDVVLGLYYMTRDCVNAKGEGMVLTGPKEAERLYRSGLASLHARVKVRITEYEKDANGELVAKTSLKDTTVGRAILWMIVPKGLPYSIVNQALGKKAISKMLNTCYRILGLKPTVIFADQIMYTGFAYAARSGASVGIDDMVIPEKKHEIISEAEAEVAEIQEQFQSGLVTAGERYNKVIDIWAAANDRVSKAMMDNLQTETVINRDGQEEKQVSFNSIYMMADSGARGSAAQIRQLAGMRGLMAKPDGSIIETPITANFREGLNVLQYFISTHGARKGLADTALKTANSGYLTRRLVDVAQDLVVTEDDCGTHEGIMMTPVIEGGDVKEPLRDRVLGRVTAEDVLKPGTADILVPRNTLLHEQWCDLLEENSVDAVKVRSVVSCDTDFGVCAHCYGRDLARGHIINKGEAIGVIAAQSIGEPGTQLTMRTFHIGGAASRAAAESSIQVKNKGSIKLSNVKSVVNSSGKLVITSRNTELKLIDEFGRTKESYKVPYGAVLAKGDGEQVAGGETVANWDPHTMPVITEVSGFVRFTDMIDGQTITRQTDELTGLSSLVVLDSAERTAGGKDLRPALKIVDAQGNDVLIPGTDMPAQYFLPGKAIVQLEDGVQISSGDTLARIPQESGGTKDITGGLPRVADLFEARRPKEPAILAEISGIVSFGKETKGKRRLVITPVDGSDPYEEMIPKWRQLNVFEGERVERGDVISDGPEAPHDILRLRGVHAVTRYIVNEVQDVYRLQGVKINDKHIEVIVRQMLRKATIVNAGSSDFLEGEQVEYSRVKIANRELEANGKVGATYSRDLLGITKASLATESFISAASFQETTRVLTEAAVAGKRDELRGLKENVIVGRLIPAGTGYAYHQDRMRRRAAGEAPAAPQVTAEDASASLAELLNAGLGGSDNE
# Chain of E. coli RNAP core enzyme (P0A800 whole entry, chain 4 of 4): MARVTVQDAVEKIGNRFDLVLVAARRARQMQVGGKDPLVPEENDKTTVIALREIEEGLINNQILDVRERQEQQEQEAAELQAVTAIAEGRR
binder,measurement,value
B1,Kd,~53 nM
